From the supplement of paper PMC9170038

Tested on: MS2 coat protein
Test: apparent KD of MS2 coat protein; higher = weaker reporter binding
Conditions: Eterna round: R107
Outline: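 Apparent KD per design is the median of normalised cluster binding-curve fits. Designed RNA switches transcribed on-chip from Illumina sequencing clusters were titrated with SNAP-549-labelled MS2 coat protein in twofold steps from 0.7 or 1.5 nM to 3 µM, with 0.8–1.5 h down to 10–20 min per step. Buffer: 100 mM Tris-HCl pH 7.5, 80 mM KCl, 4 mM MgCl2, without or with constant ligand.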

[1] = input ligand: theophylline 20 uM
[2] = input ligand: theophylline 2 mM
[3] = input ligand: tryptophan 2.4 mM

Sequence | apparent KD of MS2 coat protein (input ligand: arginine 13.2 mM) [nM] | apparent KD of MS2 coat protein [1] [nM] | apparent KD of MS2 coat protein [2] [nM] | apparent KD of MS2 coat protein (input ligand: none) [nM] | apparent KD of MS2 coat protein [3] [nM]
CACAUUUUUAGAAGGGCGGUUUCACUCCUGCGAGGACCGGUACGGCCGCCACUCGACAUGAGGAUCACCCAUGUGGAGAAGUUAG [Laesedti] | 18.4 | 27.9 | 30.5 | – | –
CACGAAAGAUCGGCCGCCACUAAUCUAUGUGUUCUUUCACAUGAGGAUCACCCAUGUUCUUGCGUUAGGACCGGGAUUGAGCGUG [#02 Exclusion Tryptophan B] | 29.9 | 39.7 | 36.6 | – | –
CACGAAAGAUCGGCCGCCACUAUUUGAUGUGUUCUUUCACAUGAGGAUCACCCAUGUUCUUAUUAUAGGACCGGGAUUGAGCGUG [ETB #3] | 73.9 | 141 | 190 | – | –
CACGAAAGAUCGGCCGCCACUCAUGUAGCUUACAUGAGGAUCACCCAUGUAUUUUCUUUCUUUUAGAGGACCGGGAUCGAGCGUG [#02 Same State - Tryptophan B] | 33.6 | 65.2 | 43.5 | – | –
CACGAAAGAUCGGCCGCCACUCAUGUUUCUUACAUGAGGAUCACCCAUGUAUUUUCUUUCUUUUAGAGGACCGGGAUUGAGCGUG [SSTB #1] | 117 | 197 | 199 | – | –
CACGAUUUGUCGGCCGCCACUAAGGUAACUCUUCUCACAUGAGGAUCACCCAUGUGCCCGAAGCUUAGGACCGGGAUAAUGGGUG [Dieson] | 32.3 | 150 | 288 | – | –
CACGGACGAGUGGAUCACCCUCGUAAUAACCGAGGACCGGUACGGCCGCCACUCGAAAACCGUGACCUGUACGAAAAGUGCAGGA | 56.1 | 210 | 531 | 88.7 | 73.2
CACGGAUGAGUGGAUCACCCUCGUAAUAACCGAGGACCGGUACGGCCGCCACUCGAAAACCGUGACCUGUACGAAAAGUGCAGGA | 56.7 | 399 | 1500 | 36.5 | 39.8
CAGCCUGGUUGGUAAAUCCCUCAUCGUGAUACCAGUCGAGUGAUCGACCCUUGGCAGCACAUGAGGAUCACCCAUGUGCUCGUAU [Diorqu] | 18.6 | 31.1 | – | – | 17.9
CAGGUGCAGUCAGAUACCAGAUCUGCACAUGAGGAUCACCCAUGUGUAAUGAGUUCAAAGAUCCCUUGGCAGCUGUGUGAUCCGA [Onbidibe] | 81.1 | 210 | – | – | 96.3
CAGUCAGUCAGUCAAUGAGUGAGCCAUGAAGGAGCGUGGGAAACCACAGGUAGGUCGCAUGGGAAACAUGAGGAUCACCCAUGUU [SSArg A #2] | 27.5 | 36.9 | 36.2 | 25.5 | 28.2
CAUACUUUAGUAUGUUAUGUGGACAGUGAUACCAGAUACGAAAGUAUCCCUUGGCAGCACAACAUGAGGAUCACCCAUGUAAUUU [Theophylline A 5] | 24.4 | 24.8 | – | – | 28.2
CAUCGUCGGUCGGCCGCCACUACUGGACAUGAGGAUCACCCAUGUGGCCCGCUGUAUUAACCGCGUAGGACCGGGACGGGAGGUA [theeternabot_exclusion_MS2_Trp_B_4] | 24 | 48.6 | 39.3 | – | –
CAUGAAGUAACUGAUACCAGUGUACUGACAUGAGGAUCACCCAUGUUGGGUUUUGUUGUACACCCUUGGCAGCAGAAUCUUUAUG [AstrosExyTheB#4] | 50 | 70.8 | – | – | 58.5
CCAAGCAUAAUAGAUACCAGUCGUAUACCUCCAACAUGAGGAUCACCCAUGUGCUCAGUUGACCCUUGGCAGCUAUGCCUAUAGA [theeternabot_sameState_MS2_Theo_B_1] | 37.4 | 53.3 | – | – | 38.2
CCACAUGAGGAUCACCCAUGUAUAGUUGAAGGAGCGAUCAUUAGGUCAGGUAGGUCGCAGCACAUGAGGAUCACCCAUGUCGAAA [DOUBLE!!! :-D #3] | 41.2 | 60.9 | 72.8 | 64.8 | 58.4
CCACUUUCUUUUAUCUUUCUUUCUUUGUUACGAGGACCGGUACGGCCGCCACUCGUGGUGUGUGGUACAUGAGGAUCACCCAUGU | 23.1 | 34.9 | 32.9 | – | –
CCAUAAGUAACUGAUACCAGUGUACUGACAUGAGGAUCACCCAUGUUGGGUUUUGUUGUACACCCUUGGCAGCAGAAUCUUGUGG [AstrosExyTheB#16] | 43.9 | 70.1 | – | – | 54.3
CCCAAAUAGAUCAAAGGAAUUAUACUCGAAGGAGCGUCAUAGUAGGCAGGUAGGUCGCGAGACAUGAGGAUCACCCAUGUAGAGA [sssmullin] | 33.3 | 45.6 | 57.2 | 51.9 | 34.9
CCCAAAUAGAUCUUUGGAAUUUUACUCGAAGGAGCGUCAUAGUAGGCAGGUAGGUCGCGAGACAUGAGGAUCACCCAUGUAGAGA [kinmullin] | 18.7 | 35.5 | 45.8 | 53.7 | 32.4
